Literature values, collected in paper PMC11759867.

Target: MD2 (Homo sapiens) (UniProt Q9Y6Y9)
Sequence of UniProt Q9Y6Y9 (Q9Y6Y9 19-160): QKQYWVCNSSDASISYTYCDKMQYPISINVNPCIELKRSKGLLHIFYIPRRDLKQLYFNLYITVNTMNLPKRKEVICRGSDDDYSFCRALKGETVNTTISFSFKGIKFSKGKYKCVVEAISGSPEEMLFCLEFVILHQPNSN

In the case of CIRP 106-125 (from UniProt Q14011), the Kd is given as 302 nM.
